In paper doi:10.1101/354001:
Values belong to the substance of their own block, whether it stands above or below them.

Assays:
Assay in all cases: SEC + other: SDS-PAGE
[1] = target: Δ(185-243) Glu34Lys apoA-I (globular domain, residues 1-184) (human)
[2] = target: Δ(185-243) Leu159Arg apoA-I (globular domain, residues 1-184) (human)
[3] = target: Δ(185-243) Phe71Tyr apoA-I (globular domain, residues 1-184) (human)
[4] = target: Δ(185-243) WT apoA-I (globular domain, residues 1-184, of human apolipoprotein A-I) (human)

stoichiometry N [1]: 2
Substance: Δ(185-243) Glu34Lys apoA-I (globular domain, residues 1-184) (domain or fragment)

stoichiometry N [2]: 2
Substance: Δ(185-243) Leu159Arg apoA-I (globular domain, residues 1-184) (domain or fragment)

stoichiometry N [3]: 2
Substance: Δ(185-243) Phe71Tyr apoA-I (globular domain, residues 1-184) (domain or fragment)

stoichiometry N [4]: 2
Substance: Δ(185-243) WT apoA-I (globular domain, residues 1-184, of human apolipoprotein A-I) (domain or fragment)
